Test results: patent US20100035363A1

Assays:
[1] = target: biotin-labeled RSV-IQN51 (Respiratory Syncytial Virus (F1 part)); test: time-resolved FRET competition, IQN51-APC/C39-Eu assay; competitor C39-Eu
[2] = target: biotin-labeled RSV-IQN57 (Respiratory Syncytial Virus (F1 part)); test: time-resolved FRET competition, IQN57-APC/C45-Eu assay; competitor C45-Eu

Substance	IC50 [1] [µM]	IC50 [2] [µM]
HIV-T20 (peptide)	> 10	> 10
HIV-C34 (peptide)	> 10	> 10
